For assay [1], the target named is T1, HveA (200t) (Homo sapiens, UniProt Q92956).
T1 sequence (Q92956 39-202 limits assumed): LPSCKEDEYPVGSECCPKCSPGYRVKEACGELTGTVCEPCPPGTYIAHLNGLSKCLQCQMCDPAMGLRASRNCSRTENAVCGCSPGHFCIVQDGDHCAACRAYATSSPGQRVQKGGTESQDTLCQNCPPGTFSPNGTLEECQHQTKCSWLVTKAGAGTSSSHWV
Description: competition ELISA, gD-1(306t) binding with immobilized HveA (200t). As to conditions: for inhibitory effect upon binding of gD-1 with HveA: FIG. 4C; for inhibition of binding of soluble wild type gD-1(306t) with immobilized HveA (200t): peptide at 0.5 millimolar, FIG. 4A. The procedure: (§1) Several ELISAs were performed to analyze interaction among HveA, the isolated phage peptides, gD, and LT-α. In these assays, microtiter wells were coated for 2 hours at 22° C. with 40 nanograms of HveA(200t), human factor H, trout complement C3, BSA, milk, or ovalbumin. Nonspecific binding in the wells was blocked using PBS containing 1% (w/v) BSA for 1 hour at 22° C. For competition assays, serial dilutions of gD-1 (306t), gD-1 (Δ290-299t), BSA, peptide BP-1, BP-2, or an unrelated cyclic peptide having the amino acid sequence ICVVQDWGHHRCT (SEQ ID NO:3) was added to each well. After 30 minutes of incubation at 22° C., recombinant protein (i.e., gD-1 (306t) at 0.4 microgram per milliliter, gD-1 (Δ290-299t) at 0.1 microgram per milliliter, or LT-α at 20 nanomolar), or phage supernatant was added to the well, and the samples were incubated for 1 hour. The wells were washed twice with PBS containing 0.05% (v/v) Tween-20 and incubated for one hour at 22° C. with at least one of the following: (i) a 1:1000 dilution of a peroxidase-labeled anti-M13 antibody, (ii) a 1:400 dilution of an anti-gD polyclonal antibody (R7), or (iii) an anti-LT-α monoclonal antibody (AG9).
(§2) Following incubation with the antibody, the wells were washed twice with PBS containing 0.05% (v/v) Tween-20 and incubated for 30 minutes at 22° C. with a 1:1000 dilution of a peroxidase-conjugated goat anti-rabbit immunoglobulin G (for polyclonal antibody detection) or with goat anti-mouse immunoglobulin G (for monoclonal antibody detection; Bio-Rad Laboratories, Richmond, Calif.). Color was developed by adding 2,2′-azino-di-(3-ethylbenzthiazolinesulfonate) (ABTS, Boehringer-Mannheim, Indianapolis, Ind.) and 0.5% (v/v) hydrogen peroxide. Absorbance was assessed at 405 nanometers. Net gD-1 or LT-α binding was calculated by subtracting the amount of secondary antibody bound with HveA from the amount of ligand bound with HveA.
On the technique in general: ELISA stands for enzyme-linked immunosorbent assay.

Assay [2] relates to HSV-1 entry into CHO-HveA cells. The experiment in a line: HSV entry assay, CHO-HveA cells (β-galactosidase reporter virus KOS-hrR3). As to conditions: FIG. 7A. The class given is cell-based. The procedure: (§3) CHO-HveA, CHO-HveC, and Vero cells were plated on 96-well dishes and incubated overnight. The cells were chilled at 4° C. for 10, minutes and then the medium was replaced with Ham's F-12 (CHO-HveA and CHO-HveC cells) or with Dulbecco's modified Eagle medium (DMEM) (Vero cells). These media were supplemented with 10% (v/v) bovine fetal serum and 10 millimolar HEPES, containing various concentrations of peptide, which had been previously filtered through a 0.2 micrometer pore size filter (Corning Glass Works, Corning, N.Y.). The plates were rocked at 4° C. for 90 minutes, at which time KOS-hrR3 virus (5×10^5 PFU/well) was added. The plates were rocked at 4° C. for 90 additional minutes and then incubated at 37° C. for 5 hours. Cells were lysed using 20% (v/v) Nonidet P-40 and β-galactosidase substrate (o-nitrophenyl-β-D-glucopyranoside) was added to each well. β-galactosidase activity was measured at selected time points using a Specromax 250 enzyme-linked immunosorbent assay (ELISA) reader.
Inhibition of gD-1 binding with HveA mediated by BP-2, as indicated in FIGS. 4A-4C, raised the question of whether this peptide has a blocking effect on viral entry into mammalian cells. To test this possibility, the effect of BP-2 and related peptides (i.e., BP-1, BP-2 (3, 9 Ala), scrambled BP-2, control peptide, and gD-1(Δ290-299t)) on HSV-1 entry into CHO cells expressing either HveA (CHO-HveA cells), or HveC (CHO-HveC cells), and into Vero cells was examined. Cell monolayers were incubated with increasing concentrations of peptide at 4° C. for 90 minutes. Following incubation, the cells were infected with the β-galactosidase reporter virus, KOS-hrR3. The results of these experiments are depicted in FIGS. 7A and 7B.

The target in assay [3] is T1, HveA (200t). The experiment in a line: competition ELISA, binding of phage displaying BP-1 or BP-2 with HveA. The procedure: as §1, §2
The results of these experiments are depicted in FIG. 1A.

Assay [4] concerns HSV entry into CHO-HveC cells. Description: HSV entry assay, CHO-HveC cells. The class given is cell-based, HSV-1. As to conditions: KOS-hrR3 virus. How it is done: as §3
(§4) Inhibition of gD-1 binding with HveA mediated by BP-2, as indicated in FIGS. 4A-4C, raised the question of whether this peptide has a blocking effect on viral entry into mammalian cells. […]

The test system of assay [5] is HSV entry into Vero cells. The experiment in a line: HSV entry assay, Vero cells. The class given is cell-based, HSV-1. As to conditions: KOS-hrR3 virus; FIG. 7B. The procedure: as §3, §4
In assay [6] the target is T2, HveA (200t) (Homo sapiens, UniProt Q92956).
T2 sequence (Q92956 39-200): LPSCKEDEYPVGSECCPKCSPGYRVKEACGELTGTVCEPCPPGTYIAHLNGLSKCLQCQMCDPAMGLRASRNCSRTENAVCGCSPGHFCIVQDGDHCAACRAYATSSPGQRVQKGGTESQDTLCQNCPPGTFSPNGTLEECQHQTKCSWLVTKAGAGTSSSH
The experiment in a line: competition ELISA, gD-1 (Δ290-299t) binding with HveA. The following applies: FIG. 4B. How it is done: Several ELISAs were performed to analyze interaction among HveA, the isolated phage peptides, gD, and LT-α. In these assays, microtiter wells were coated for 2 hours at 22° C. with 40 nanograms of HveA(200t), human factor H, trout complement C3, BSA, milk, or ovalbumin. Nonspecific binding in the wells was blocked using PBS containing 1% (w/v) BSA for 1 hour at 22° C. For competition assays, serial dilutions of gD-1 (306t), gD-1 (Δ290-299t), BSA, peptide BP-1, BP-2, or an unrelated cyclic peptide having the amino acid sequence ICVVQDWGHHRCT (SEQ ID NO:3) was added to each well. […]
Following incubation with the antibody, the wells were washed twice with PBS containing 0.05% (v/v) Tween-20 and incubated for 30 minutes at 22° C. with a 1:1000 dilution of a peroxidase-conjugated goat anti-rabbit immunoglobulin G (for polyclonal antibody detection) or with goat anti-mouse immunoglobulin G (for monoclonal antibody detection; Bio-Rad Laboratories, Richmond, Calif.). […] Absorbance was assessed at 405 nanometers. Net gD-1 or LT-α binding was calculated by subtracting the amount of secondary antibody bound with HveA from the amount of ligand bound with HveA.

Bridge positions count the residues as written; N and C are the ends. Ends that are not written are not given here. * marks the point of attachment. Acm = CC(=O)NC*

“BP-1 (4, 10 Acm): linear BP-1 peptide generated by reduction and alkylation of the 26-mer peptide, SEQ ID NO:1 (SISC(Acm)SRGLVC(Acm)LLPRLTNESGNDRFDS)”: the “inhibitory effect upon binding of gD-1 with HveA” value in the assay with HveA (200t) [1] is recorded as “no inhibitory effect”.
For the molecule “ICVVQDWGHHRCT [cyclic control peptide, reference compound]”, in the assay with HveA (200t) [1], the “inhibitory effect upon binding of gD-1 with HveA” value was “no inhibitory effect”.
Still for that read-out and setting: under “BP-2 (3, 9 Ala): linear form of BP-2 generated by substitution of the cysteine residues with alanine, SEQ ID NO:2 (GSADGFRVAYMH; Peptide corresponds to BP-2 (3,9 Ala))” stands “no inhibitory effect”; under “scrambled sequence BP-2: scrambled primary sequence of the parental cyclic BP-2, maintaining the position of the two cysteines, SEQ ID NO:6 (YMCRFVDGCHGS; disulfide 3-9 (inferred))”, “no inhibitory effect”.
For “BP-1: cyclic 26-residue HveA-binding peptide, SEQ ID NO:4, from the 27-mer phage library (SISCSRGLVCLLPRLTNESGNDRFDS; disulfide 4-10 (inferred))”, the “blocking of HSV-1 entry into CHO-HveA cells” value (shortened to “blocking”) in assay [2] is listed as “neither BP-1 nor any of the BP-2 analogs blocked virus entry”. For the same molecule, the “inhibition of binding of soluble wild type gD-1(306t) with immobilized HveA (200t)” value with HveA (200t) [1] is listed as 20%. Moreover, the “inhibition of binding of phage displaying BP-2 to HveA” value with HveA (200t) [3] (FIG. 3A) was “vice versa”. The “effect on HSV entry into CHO-HveC cells” value in assay [4] is “Neither BP-1 or BP-2 had any effect”. In addition, in assay [5], the “effect on HSV entry into Vero cells” value is given as “Neither BP-1 or BP-2 had any effect”.
On to “BP-2: cyclic 12-residue HveA-binding peptide, SEQ ID NO:5, from the 12-mer phage library (GSCDGFRVCYMH; disulfide 3-9 (inferred))”, for which the “blocking” value in assay [2] is on record as “blocked entry”. Besides, the “inhibition of binding of soluble wild type gD-1(306t) with immobilized HveA (200t)” value with HveA (200t) [1] is recorded as 80%. In addition, the “inhibition of binding of phage displaying BP-1 to HveA” value in the assay with HveA (200t) [3] (FIG. 3B) is on record as “inhibited”. In addition, in assay [4], the “effect on HSV entry into CHO-HveC cells” value is recorded as “Neither BP-1 or BP-2 had any effect”. Further, the “inhibition of binding of gD-1 (Δ290-299t) with HveA” value with HveA (200t) [6] was 40%. Further, the “effect on HSV entry into Vero cells” value in assay [5] is listed as “Neither BP-1 or BP-2 had any effect”.

B1: gD-1 (306t): soluble wild type HSV glycoprotein D, from recombinant baculovirus-infected cells (protein)
chain: KYALVDASLKMADPNRFRGKDLPVLDQLTDPPGVRRVYHIQAGLPDPFQPPSLPITVYYAVLERACRSVLLNAPSEAPQIVRGASEDVRKQPYNLTIAWFRMGGNCAIPITVMEYTECSYNKSLGACPIRTQPRWNYYDSFSAVSEDNLGFLMHAPAFETAGTYLRLVKINDWTEITQFILEHRAKGSCKYALPLRIPPSACLSPQAYQQGVTVDSIGMLPRFIPENQRTVAVYSLKIAGWHGPKAPYTSTLLPPELSETPNATQPELAPEDPEDSALLEDPVGTVAPQIPPNWHIPSIQDAATPY
modifications: left off: small tags and cut ends
notes: soluble wild type HSV glycoprotein D, from recombinant baculovirus-infected cells
As to B1, the “blocking” value in assay [2] is on record as “failed to do so”. The “inhibition of HveA-binding phage clones binding with HveA (200t)” value with HveA (200t) [3] (fluid-phase soluble competitor, FIG. 1A) is “significantly inhibited”.

For the origin of these results see patent US6699481B2, “Peptides for inhibition of herpes simplex virus entry” (priority 1998, dated 2004).
